Patent publication US20180333502A1 (published 2018)

T1: human CD73 on Calu6 cells (human, UniProt P21589 27-549)
T1 sequence (looked up): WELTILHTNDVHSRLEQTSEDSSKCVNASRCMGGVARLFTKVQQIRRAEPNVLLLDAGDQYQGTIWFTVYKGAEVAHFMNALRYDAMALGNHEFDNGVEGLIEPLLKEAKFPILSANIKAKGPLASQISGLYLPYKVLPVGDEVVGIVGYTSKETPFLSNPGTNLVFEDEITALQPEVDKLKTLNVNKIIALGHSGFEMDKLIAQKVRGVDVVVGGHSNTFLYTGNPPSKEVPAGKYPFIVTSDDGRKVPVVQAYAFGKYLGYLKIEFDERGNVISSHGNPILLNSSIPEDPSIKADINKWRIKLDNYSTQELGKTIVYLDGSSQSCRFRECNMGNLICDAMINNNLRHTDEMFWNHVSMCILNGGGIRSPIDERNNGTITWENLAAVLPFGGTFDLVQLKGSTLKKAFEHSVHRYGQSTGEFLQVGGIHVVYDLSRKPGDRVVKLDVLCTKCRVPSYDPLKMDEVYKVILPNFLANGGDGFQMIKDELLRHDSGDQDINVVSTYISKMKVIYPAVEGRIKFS

T2: human GITR on cells (activated human T cells; 3A9-hGITR cells) (human, UniProt Q9Y5U5 26-241)
T2 sequence (looked up): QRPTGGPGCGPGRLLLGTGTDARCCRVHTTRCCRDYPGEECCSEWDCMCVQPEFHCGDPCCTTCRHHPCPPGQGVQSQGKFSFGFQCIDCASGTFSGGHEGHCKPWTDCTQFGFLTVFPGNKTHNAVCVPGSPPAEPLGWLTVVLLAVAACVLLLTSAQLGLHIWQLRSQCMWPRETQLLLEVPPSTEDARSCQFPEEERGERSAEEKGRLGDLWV


Assays:
[1] = target: T1, human CD73 on Calu6 cells; assay: cell-based or functional assay
[2] = target: T2, human GITR on cells (activated human T …); assay: cell-based or functional assay

| Binder | Ymax, CD73 internalization, Calu6 cells, 2 h [1] | Emax (%), phospho-p65 NFkB signaling, CD4+ T cells [2] | Emax (%), phospho-p65 NFkB signaling, CD8+ T cells [2] |
| --- | --- | --- | --- |
| CD73.10-IgG2-C219S (antibody) heavy: QVQLVESGGGVVQPGRSLRLSCAASGFTFSNYGMHWVRQAPGKGLEWVAVIWYDESNKYYPDSVKGRFTISRDNSKNTLYLQMNSLRAEDTAVYYCARGGSSWYPDSFDIWGQGTMVTVSSASTKGPSVFPLAPCSRSTSESTAALGCLVKDYFPEPVTVSWNSGALTSGVHTFPAVLQSSGLYSLSSVVTVPSSNFGTQTYTCNVDHKPSNTKVDKTVERKSCVECPPCPAPPVAGPSVFLFPPKPKDTLMISRTPEVTCVVVDVSHEDPEVQFNWYVDGVEVHNAKTKPREEQFNSTFRVVSVLTVVHQDWLNGKEYKCKVSNKGLPAPIEKTISKTKGQPREPQVYTLPPSREEMTKNQVSLTCLVKGFYPSDIAVEWESNGQPENNYKTTPPMLDSDGSFFLYSKLTVDKSRWQQGNVFSCSVMHEALHNHYTQKSLSLSPG light: not shown | 99 % of 100 nM 11F11 | – | – |
| CD73.10-IgG2-C219S-IgG1.1 (antibody) heavy: QVQLVESGGGVVQPGRSLRLSCAASGFTFSNYGMHWVRQAPGKGLEWVAVIWYDESNKYYPDSVKGRFTISRDNSKNTLYLQMNSLRAEDTAVYYCARGGSSWYPDSFDIWGQGTMVTVSSASTKGPSVFPLAPCSRSTSESTAALGCLVKDYFPEPVTVSWNSGALTSGVHTFPAVLQSSGLYSLSSVVTVPSSNFGTQTYTCNVDHKPSNTKVDKTVERKSCVECPPCPAPPVAGPSVFLFPPKPKDTLMISRTPEVTCVVVDVSHEDPEVKFNWYVDGVEVHNAKTKPREEQYNSTYRVVSVLTVLHQDWLNGKEYKCKVSNKALPSSIEKTISKAKGQPREPQVYTLPPSREEMTKNQVSLTCLVKGFYPSDIAVEWESNGQPENNYKTTPPMLDSDGSFFLYSKLTVDKSRWQQGNVFSCSVMHEALHNHYTQKSLSLSPG light: not shown | 99 % of 100 nM 11F11 | – | – |
| CD73.4-IgG2.3G1.1f-KH (antibody) heavy: QVQLVESGGGVVQPGRSLRLSCAASGFTFSNYGMHWVRQAPGKGLEWVAVILYDGSNKYYPDSVKGRFTISRDNSKNTLYLQMNSLRAEDTAVYYCARGGSSWYPDSFDIWGQGTMVTVSSASTKGPSVFPLAPCSRSTSESTAALGCLVKDYFPEPVTVSWNSGALTSGVHTFPAVLQSSGLYSLSSVVTVPSSNFGTQTYTCNVDHKPSNTKVDKTVERKSCVECPPCPAPPVAGPSVFLFPPKPKDTLMISRTPEVTCVVVDVSHEDPEVKFNWYVDGVEVHNAKTKPREEQYNSTYRVVSVLTVLHQDWLNGKEYKCKVSNKALPSSIEKTISKAKGQPREPQVYTLPPSREEMTKNQVSLTCLVKGFYPSDIAVEWESNGQPENNYKTTPPVLDSDGSFFLYSKLTVDKSRWQQGNVFSCSVMHEALHNHYTQKSLSLSPGK light: not shown | 97 % of 100 nM 11F11 | – | – |
| 11F11 (antibody, human IgG2, kappa, V domains shown) VH: QVQLVESGGGVVQPGRSLRLSCATSGFTFSNYGMHWVRQAPGKGLEWVAVILYDGSNKYYPDSVKGRFTISRDNSKNTLYLQMNSLRAEDTAVYYCARGGSSWYPDSFDIWGQGTMVTVSS VL: DIQMTQSPSSLSASVGDRVTITCRASQGISSWLAWYQQKPEKAPKSLIYAASSLQSGVPSRFSGSGSGTDFTLTISSLQPEDFATYYCQQYNSYPLTFGGGTKVEIKR | 98 % of 100 nM 11F11 | – | – |
| anti-GITR-IgG2 (antibody) heavy: QVQLVESGGGVVQPGRSLRLSCAASGFTFSSYGMHWVRQAPGKGLEWVAVIWYEGSNKYYADSVKGRFTISRDNSKNTLYLQMNSLRAEDTAVYYCARGGSMVRGDYYYGMDVWGQGTTVTVSSASTKGPSVFPLAPCSRSTSESTAALGCLVKDYFPEPVTVSWNSGALTSGVHTFPAVLQSSGLYSLSSVVTVPSSNFGTQTYTCNVDHKPSNTKVDKTVERKCCVECPPCPAPPVAGPSVFLFPPKPKDTLMISRTPEVTCVVVDVSHEDPEVQFNWYVDGVEVHNAKTKPREEQFNSTFRVVSVLTVVHQDWLNGKEYKCKVSNKGLPAPIEKTISKTKGQPREPQVYTLPPSREEMTKNQVSLTCLVKGFYPSDIAVEWESNGQPENNYKTTPPMLDSDGSFFLYSKLTVDKSRWQQGNVFSCSVMHEALHNHYTQKSLSLSPGK light: not shown | – | 69 % of GITR.6.G2.G1f | 85 % of GITR.6.G2.G1f |
